According to the supplement of paper PMC9112550, “Optimization of the antimicrobial peptide Bac7 by deep mutational scanning” (BMC Biology, 2022):

System: Escherichia coli TOP10
Experiment: shrunken log2 fold change of peptide-encoding DNA abundance (4.5 h post-induction vs induction); higher = less antimicrobial activity (less host growth inhibition)
Conditions: time post-induction: 4.5 h; library: site-saturation at positions 5, 18, 19, 20
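Also: peptides expressed intracellularly from a pBAD plasmid library in pooled LB shake-flask culture, induced with 0.3% L-arabinose, DNA abundance read by NGS, three biological replicates, DESeq2 with apeglm shrinkage.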

Sequence	shrunken log2 fold change
RRIRQRPPRLPRPRPRPWYGPRP	-0.191
RRIRCRPPRLPRPRPRPWRFPRP	0.145
RRIRARPPRLPRPRPRPSMIPRP	-0.128
RRIRKRPPRLPRPRPRPVHVPRP	0.0513
RRIRHRPPRLPRPRPRPDQWPRP	-0.108
RRIRSRPPRLPRPRPRPFKLPRP	-0.71
RRIRYRPPRLPRPRPRPCGDPRP	-0.0424
RRIRARPPRLPRPRPRPYIHPRP	-0.681
RRIRQRPPRLPRPRPRPWTMPRP	0.0143
RRIRARPPRLPRPRPRPIYNPRP	-0.668
RRIRMRPPRLPRPRPRPRKQPRP	0.938
RRIRTRPPRLPRPRPRPWAKPRP	0.057
RRIRCRPPRLPRPRPRPVWYPRP	-0.184
RRIRRRPPRLPRPRPRPSCMPRP	0.019
RRIRNRPPRLPRPRPRPTFIPRP	-0.279
RRIRWRPPRLPRPRPRPGWGPRP	0.534
RRIRDRPPRLPRPRPRPLCTPRP	0.704
RRIRRRPPRLPRPRPRPNNCPRP	0.129
RRIRDRPPRLPRPRPRPQCIPRP	-0.0275
RRIRCRPPRLPRPRPRPMGIPRP	0.00755
RRIRMRPPRLPRPRPRPGSQPRP	0.926
RRIRDRPPRLPRPRPRPLGYPRP	0.0343
RRIRCRPPRLPRPRPRPGKGPRP	-0.025
RRIRKRPPRLPRPRPRPMYCPRP	-0.233
RRIRPRPPRLPRPRPRPIIIPRP	-0.593

Sequence	shrunken log2 fold change
RRIRNRPPRLPRPRPRPQNAPRP	-0.011
RRIRLRPPRLPRPRPRPTRTPRP	0.243
RRIRKRPPRLPRPRPRPRSPPRP	0.6
RRIRKRPPRLPRPRPRPVWEPRP	0.391
RRIRARPPRLPRPRPRPMVGPRP	0.548
RRIRHRPPRLPRPRPRPFDAPRP	0.00493
RRIRTRPPRLPRPRPRPHFWPRP	0.0783
RRIRSRPPRLPRPRPRPWYIPRP	-0.314
RRIRIRPPRLPRPRPRPDAQPRP	-0.0523
RRIRGRPPRLPRPRPRPSRAPRP	0.553
RRIRPRPPRLPRPRPRPLYKPRP	-0.247
RRIRIRPPRLPRPRPRPRHNPRP	-0.245
RRIRYRPPRLPRPRPRPRQAPRP	0.0877
RRIRFRPPRLPRPRPRPDCQPRP	0.0422
RRIRFRPPRLPRPRPRPVREPRP	0.269
RRIRHRPPRLPRPRPRPYGVPRP	-0.256
RRIRNRPPRLPRPRPRPYWGPRP	0.0237
RRIRRRPPRLPRPRPRPVCEPRP	0.935
RRIRMRPPRLPRPRPRPMHMPRP	0.0153
RRIRERPPRLPRPRPRPHFAPRP	-0.0634
RRIRQRPPRLPRPRPRPLMNPRP	-0.131
RRIRARPPRLPRPRPRPDVVPRP	-0.101
RRIRYRPPRLPRPRPRPQLHPRP	-0.395
RRIRYRPPRLPRPRPRPQGYPRP	-0.516
RRIRMRPPRLPRPRPRPKQRPRP	1.1

Sequence	shrunken log2 fold change
RRIRVRPPRLPRPRPRPVYTPRP	-0.324
RRIRARPPRLPRPRPRPLFKPRP	0.117
RRIRMRPPRLPRPRPRPVHKPRP	-0.0081
RRIRRRPPRLPRPRPRPDLAPRP	0.197
RRIRFRPPRLPRPRPRPPNLPRP	-0.0642
RRIRQRPPRLPRPRPRPFMCPRP	-0.371
RRIRNRPPRLPRPRPRPMPHPRP	-0.626
RRIRKRPPRLPRPRPRPKSGPRP	0.0187
RRIRQRPPRLPRPRPRPYVEPRP	-0.537
RRIRARPPRLPRPRPRPTKYPRP	-0.114
RRIRLRPPRLPRPRPRPSACPRP	-0.484
RRIRLRPPRLPRPRPRPLMVPRP	-0.326
RRIRGRPPRLPRPRPRPPQCPRP	0.713
RRIRMRPPRLPRPRPRPIMAPRP	-0.0196
RRIRVRPPRLPRPRPRPTTPPRP	0.347
RRIRARPPRLPRPRPRPHQYPRP	-0.278
RRIRGRPPRLPRPRPRPALRPRP	0.991
RRIRERPPRLPRPRPRPFAQPRP	-0.145
RRIRARPPRLPRPRPRPSQMPRP	0.0732
RRIRRRPPRLPRPRPRPHCWPRP	0.11
RRIRHRPPRLPRPRPRPRLRPRP	0.207
RRIRIRPPRLPRPRPRPMCEPRP	-0.00819
RRIRHRPPRLPRPRPRPWYAPRP	-0.41
RRIRCRPPRLPRPRPRPKNRPRP	-0.118
RRIRCRPPRLPRPRPRPKVQPRP	0.0235

Sequence	shrunken log2 fold change
RRIRIRPPRLPRPRPRPMNHPRP	-0.348
RRIRRRPPRLPRPRPRPVIHPRP	-0.0832
RRIRGRPPRLPRPRPRPRVIPRP	0.227
RRIRKRPPRLPRPRPRPHSEPRP	-0.0169
RRIRWRPPRLPRPRPRPMLDPRP	0.426
RRIRWRPPRLPRPRPRPGDDPRP	0.351
RRIRFRPPRLPRPRPRPCTNPRP	-0.598
RRIRSRPPRLPRPRPRPRSDPRP	0.223
RRIRARPPRLPRPRPRPFRPPRP	0.153
RRIRIRPPRLPRPRPRPLRGPRP	0.694
RRIRARPPRLPRPRPRPDSKPRP	0.149
RRIRMRPPRLPRPRPRPGWKPRP	0.0184
RRIRKRPPRLPRPRPRPPRMPRP	0.648
RRIRVRPPRLPRPRPRPTRMPRP	0.0492
RRIRLRPPRLPRPRPRPCRYPRP	-0.0582
RRIRGRPPRLPRPRPRPLQCPRP	0.904
RRIRPRPPRLPRPRPRPDMQPRP	-0.21
RRIRQRPPRLPRPRPRPVLGPRP	0.226
RRIRWRPPRLPRPRPRPTVAPRP	0.662
RRIRGRPPRLPRPRPRPTAYPRP	0.656
RRIRLRPPRLPRPRPRPVGPPRP	0.163
RRIRRRPPRLPRPRPRPPIVPRP	-0.00408
RRIRPRPPRLPRPRPRPDGSPRP	-0.00717
RRIRKRPPRLPRPRPRPMYEPRP	-0.132
RRIRARPPRLPRPRPRPPRVPRP	0.875

Sequence	shrunken log2 fold change
RRIRQRPPRLPRPRPRPHKMPRP	0.246
RRIRKRPPRLPRPRPRPANGPRP	0.566
RRIRSRPPRLPRPRPRPQSEPRP	-0.0306
RRIRQRPPRLPRPRPRPKLSPRP	0.00202
RRIRYRPPRLPRPRPRPDIAPRP	-0.0285
RRIRRRPPRLPRPRPRPYWDPRP	-0.247
RRIRGRPPRLPRPRPRPKPMPRP	0.419
RRIRNRPPRLPRPRPRPVSWPRP	0.162
RRIRGRPPRLPRPRPRPVWSPRP	0.179
RRIRKRPPRLPRPRPRPTLIPRP	-0.0752
RRIRTRPPRLPRPRPRPRQLPRP	0.187
RRIRMRPPRLPRPRPRPAVMPRP	0.782
RRIRQRPPRLPRPRPRPFSQPRP	0.0178
RRIRFRPPRLPRPRPRPWHLPRP	-0.0307
RRIRVRPPRLPRPRPRPVELPRP	0.104
RRIRMRPPRLPRPRPRPMRIPRP	0.355
RRIRQRPPRLPRPRPRPRRMPRP	0.455
RRIRFRPPRLPRPRPRPPTHPRP	0.22
RRIRWRPPRLPRPRPRPLHNPRP	-0.116
RRIRTRPPRLPRPRPRPWTHPRP	-0.0143
RRIRARPPRLPRPRPRPAYRPRP	-0.086
RRIRCRPPRLPRPRPRPCVYPRP	-0.411
RRIRLRPPRLPRPRPRPSSRPRP	-0.425
RRIRGRPPRLPRPRPRPAQKPRP	0.721
RRIRKRPPRLPRPRPRPQRQPRP	0.265

Sequence	shrunken log2 fold change
RRIRIRPPRLPRPRPRPMMNPRP	-0.442
RRIRWRPPRLPRPRPRPQPIPRP	0.813
RRIRNRPPRLPRPRPRPSCCPRP	-0.318
RRIRMRPPRLPRPRPRPYVYPRP	-0.175
RRIRRRPPRLPRPRPRPMMQPRP	0.112
RRIRMRPPRLPRPRPRPLVIPRP	-0.13
RRIRGRPPRLPRPRPRPMGNPRP	0.124
RRIRERPPRLPRPRPRPVPVPRP	0.0913
RRIRSRPPRLPRPRPRPMWWPRP	0.551
RRIRLRPPRLPRPRPRPGCHPRP	-0.268
RRIRWRPPRLPRPRPRPANLPRP	-0.285
RRIRCRPPRLPRPRPRPYNRPRP	-0.0425
RRIRVRPPRLPRPRPRPTVKPRP	0.0641
RRIRGRPPRLPRPRPRPQHGPRP	0.137
RRIRLRPPRLPRPRPRPTYTPRP	-0.317
RRIRVRPPRLPRPRPRPSQSPRP	-0.146
RRIRVRPPRLPRPRPRPDFNPRP	-0.344
RRIRARPPRLPRPRPRPGFTPRP	0.204
RRIRRRPPRLPRPRPRPKYMPRP	-0.444
RRIRKRPPRLPRPRPRPHNYPRP	-0.0761
RRIRRRPPRLPRPRPRPPSMPRP	0.426
RRIRTRPPRLPRPRPRPLYWPRP	-0.559
RRIRFRPPRLPRPRPRPDKDPRP	-0.393
RRIRRRPPRLPRPRPRPMTPPRP	0.749
RRIRRRPPRLPRPRPRPEPRPRP	1.02
